Reference: patent publication US20050112748A1 (published 2005)

Molecular target: T1, N-terminal portion of N-WASP (1st to 275th amino acid residues) fused to the Gal4 activation domain (pACT2) (UniProt Q95107 1-275)
T1 construct: range 1-275; Yeast two-hybrid prey; also called CRIB-motif-containing N-terminal portion of N-WASP; N-WASP CRIB motif
Assay: yeast two-hybrid, beta-galactosidase colony-lift filter assay
Description: The cDNAs encoding the wild-type, constitutively active, and dominant-negative mutants of Cdc42, Tc10, and RhoT were ligated to the Gal4 DNA-binding domain of the pGBT9 vector (Clontech). A cDNA fragment encoding the N-terminal portion of N-WASP (corresponding to 1st to 275th amino acid residues) (EMBO J. 15: 5326-5335 (1996), Nature 391: 93-96 (1998)) was fused to the Gal4 activation domain of pACT2 vector (Clontech) The yeast strain Y190 was sequentially transformed with the bait and prey plasmids. Double transformants were selected on plates of minimal synthetic dropout medium lacking leucine and tryptophan (SD/-Leu/-Trp). The activation of lacz reporter gene was analyzed by β-galactosidase colony-lift filter assay.
Cdc42 generates filopodia through binding to the CRIB motif (J. Biol. Chem. 270: 29071-29074 (1995)) of its target protein N-WASP, which activates Arp2/3-complex- and profilin-mediated actin polymerization (EMBO J. 15: 5326-5335 (1996), Nature 391: 93-96 (1998), Cell 97: 221-231 (1999)). To determine whether Tc10 and RhoT also bound to N-WASP, the yeast two-hybrid interaction assay was performed.

T1 sequence (Q95107 1-275 limits assumed): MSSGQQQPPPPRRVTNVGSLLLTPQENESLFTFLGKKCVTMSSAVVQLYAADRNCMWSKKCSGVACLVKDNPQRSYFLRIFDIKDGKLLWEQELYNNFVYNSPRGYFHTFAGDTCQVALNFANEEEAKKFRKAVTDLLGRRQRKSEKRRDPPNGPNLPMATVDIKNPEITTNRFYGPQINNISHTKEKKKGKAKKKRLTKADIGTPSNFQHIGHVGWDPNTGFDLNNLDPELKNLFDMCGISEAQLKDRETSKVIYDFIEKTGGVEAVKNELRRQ

binding result: no binding
B1: Dominant-negative mouse RhoT(T35N) fused to the Gal4 DNA-binding domain (pGBT9) (enzyme, not shown: small tags and cut ends)
chain: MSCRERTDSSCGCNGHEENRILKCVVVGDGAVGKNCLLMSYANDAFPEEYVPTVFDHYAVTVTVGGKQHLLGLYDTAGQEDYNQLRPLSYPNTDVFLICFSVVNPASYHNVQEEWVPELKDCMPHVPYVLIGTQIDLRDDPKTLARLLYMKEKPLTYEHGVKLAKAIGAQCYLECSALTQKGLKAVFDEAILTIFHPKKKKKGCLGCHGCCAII
notes: Yeast two-hybrid bait; also called RhoT(T3SN); RhoT DN
